Measured values from publication doi:10.1101/2020.02.28.970509.

Legend:
Test in all cases: fluorescence anisotropy
A3H Hap I K117E = A3H Hap I K117E (human, UniProt Q6NTF7 1-200, K117E)
A3H Hap I K117E/K121E = A3H Hap I K117E/K121E (human, UniProt Q6NTF7 1-200, K117E;K121E)
A3H Hap II = A3H Hap II (human, UniProt Q6NTF7 1-181, G105R;K121D;E178D)
A3H Hap VII = A3H Hap VII (human, UniProt Q6NTF7 1-200, G105R)
Chain of A3H Hap VII (Q6NTF7 whole entry G105R): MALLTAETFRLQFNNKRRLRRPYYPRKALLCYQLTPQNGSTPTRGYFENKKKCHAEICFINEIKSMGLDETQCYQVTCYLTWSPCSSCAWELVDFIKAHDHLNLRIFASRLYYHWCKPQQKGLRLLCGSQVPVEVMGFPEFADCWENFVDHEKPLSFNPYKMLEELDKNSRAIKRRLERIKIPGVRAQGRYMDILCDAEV

Chain of A3H Hap I K117E/K121E (Q6NTF7 whole entry K117E/K121E): as the sequence (Q6NTF7 whole entry G105R) above, with R105G, K117E, K121E counted along it
Chain of A3H Hap II (Q6NTF7 1-181 G105R/K121D/E178D): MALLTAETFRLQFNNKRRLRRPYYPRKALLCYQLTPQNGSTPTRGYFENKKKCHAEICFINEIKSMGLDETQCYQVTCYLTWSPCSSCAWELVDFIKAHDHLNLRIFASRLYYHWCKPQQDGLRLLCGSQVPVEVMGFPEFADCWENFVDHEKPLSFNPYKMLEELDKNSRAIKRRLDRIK
Chain of A3H Hap I K117E (Q6NTF7 whole entry K117E): as the sequence (Q6NTF7 whole entry G105R) above, with R105G, K117E counted along it

B1: 118 nt ssDNA (ssDNA)
DNA: GAATATAGTTTTTAGCTCAAAGTAAGTGAAGATAATTTAGAGAGTTGTAATGTGATATATGTGTATGAAAGATATAAGACTCAAAGTGAAAAGTTGTTAATGTGTGTAGATATGTTAA
modifications: internal fluorescein-dT at position 37 (between S1 and S2)
- Kd (A3H Hap I K117E): 3000 ± 1770 nM
- Kd (A3H Hap I K117E/K121E): 1240 ± 88 nM
- Kd (A3H Hap II): 492 ± 28 nM
- Kd (A3H Hap VII): 522 ± 4 nM
